Earlier results in article PMC3139910.

Molecular target: CCR7 (Homo sapiens) (UniProt P32248)
Chain of UniProt P32248 (P32248 25-378): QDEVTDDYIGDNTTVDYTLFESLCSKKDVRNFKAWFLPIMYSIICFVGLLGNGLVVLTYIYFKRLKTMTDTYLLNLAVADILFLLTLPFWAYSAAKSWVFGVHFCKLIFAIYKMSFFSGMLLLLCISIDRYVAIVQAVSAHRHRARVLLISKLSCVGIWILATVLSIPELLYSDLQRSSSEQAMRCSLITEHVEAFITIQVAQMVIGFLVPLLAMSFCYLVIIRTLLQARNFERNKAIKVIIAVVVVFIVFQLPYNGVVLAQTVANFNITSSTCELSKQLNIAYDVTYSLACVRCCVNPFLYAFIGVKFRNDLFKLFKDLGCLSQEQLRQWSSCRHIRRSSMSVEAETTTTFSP

## CCL21 (from UniProt O00585)
  Kd: 5 nM
